Assay results: IntAct's records for PubMed 21212807

B1: TRAF family member-associated NF-kappa-B activator (Homo sapiens), Q92844 (parent)
chain: MDKNIGEQLNKAYEAFRQACMDRDSAVKELQQKTENYEQRIREQQEQLSLQQTIIDKLKSQLLLVNSTQDNNYGCVPLLEDSETRKNNLTLDQPQDKVISGIAREKLPKVRRQEVSSPRKETSARSLGSPLLHERGNIEKTFWDLKEEFHKICMLAKAQKDHLSKLNIPDTATETQCSVPIQCTDKTDKQEALFKPQAKDDINRGAPSITSVTPRGLCRDEEDTSFESLSKFNVKFPPMDNDSTFLHSTPERPGILSPATSEAVCQEKFNMEFRDNPGNFVKTEETLFEIQGIDPIASAIQNLKTTDKTKPSNLVNTCIRTTLDRAACLPPGDHNALYVNSFPLLDPSDAPFPSLDSPGKAIRGPQQPIWKPFPNQDSDSVVLSGTDSELHIPRVCEFCQAVFPPSITSRGDFLRHLNSHFNGET
partner: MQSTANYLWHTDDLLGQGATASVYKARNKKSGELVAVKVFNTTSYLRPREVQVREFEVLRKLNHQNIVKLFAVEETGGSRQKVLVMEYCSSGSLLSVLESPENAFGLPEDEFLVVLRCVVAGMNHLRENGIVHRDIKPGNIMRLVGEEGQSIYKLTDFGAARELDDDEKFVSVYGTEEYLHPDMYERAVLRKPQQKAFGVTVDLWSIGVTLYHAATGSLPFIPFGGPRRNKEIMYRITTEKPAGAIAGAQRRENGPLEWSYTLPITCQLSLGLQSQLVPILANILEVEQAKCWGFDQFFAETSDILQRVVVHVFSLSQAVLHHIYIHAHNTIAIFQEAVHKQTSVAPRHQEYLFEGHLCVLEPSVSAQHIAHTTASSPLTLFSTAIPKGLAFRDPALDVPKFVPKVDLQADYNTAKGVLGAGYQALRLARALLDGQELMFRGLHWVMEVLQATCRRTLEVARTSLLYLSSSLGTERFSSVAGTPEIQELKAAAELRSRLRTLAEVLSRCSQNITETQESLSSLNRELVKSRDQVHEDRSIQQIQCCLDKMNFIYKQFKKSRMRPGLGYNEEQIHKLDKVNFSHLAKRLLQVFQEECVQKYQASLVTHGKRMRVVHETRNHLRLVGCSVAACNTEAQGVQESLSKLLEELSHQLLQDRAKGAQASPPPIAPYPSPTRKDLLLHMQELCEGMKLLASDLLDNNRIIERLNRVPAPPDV

Variants of: B1
Details: with ikke_human IKBKE

Variant | effect of a mutation on the interaction
MDKNIGEQLNKAYEAFRQACMDRDSAVKELQQKTENYEQRIREQQEQLSLQQTIIDKLKSQLLLVNSTQDNNYGCVPLLEDSETRKNNLTLDQPQDKVISGIAREKLPKVRRQEVSSPRKETSARSLGSPLLHERGNIEKTFWDLKEEFHKICMLAKAQKDHLSKLNIPDTATETQCSVPIQCTDKTDKQEALFKPQAKDDINRGAPSITSVTPRGLCRDEEDTSFESLSKFNVKFPPMDNDSTFLHSTPERPGILSPATSEAVCQEKFNMEFRDNPGNFVRTEETLFEIQGIDPIASAIQNLKTTDKTKPSNLVNTCIRTTLDRAACLPPGDHNALYVNSFPLLDPSDAPFPSLDSPGKAIRGPQQPIWKPFPNQDSDSVVLSGTDSELHIPRVCEFCQAVFPPSITSRGDFLRHLNSHFNGET [K282R] | increasing interaction
